The values below come from PMC10941009, “Structural basis for specific DNA sequence recognition by the transcription factor NFIL3” (The Journal of Biological Chemistry, 2024).

Changes are numbered by the printed parent chain. Names and notes keep the numbering of the source.

The target of one data set is T1, NFIL3 bZIP (long) (human, UniProt Q16649 65-161).
T1 sequence: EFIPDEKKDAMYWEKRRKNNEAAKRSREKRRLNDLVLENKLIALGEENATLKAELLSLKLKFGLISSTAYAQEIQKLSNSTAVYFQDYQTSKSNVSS
Nature of the data set: ITC; ITC: 20 mM Tris pH 7.5, 150 mM NaCl, 25 °C; EMSA: same buffer, 4 °C, 6% native gel in 0.5x TBE. Conditions: protein: recombinant, tags: His6-SUMO removed by TEV, chain copies: 2, blunt. In general terms: Isothermal titration calorimetry measures the heat released or taken up as one component is titrated into another.

Data set [1] concerns the molecule itself. Nature of the data set: SEC; Superdex 200 10/300 GL, 20 mM Tris pH 7.5, 150 mM NaCl; NFIL3 bZIP domain WT 2 mg/ml apo and NFIL3 mutants, against protein standard. (In gel filtration, larger molecules generally elute earlier.)
Data set [2] deals with the molecule itself. Description: SEC; gel filtration chromatography of the recombinant C/EBPζ bZIP domain; conditions not told for this protein.
Another data set addresses C/EBPζ bZIP (human, UniProt P35638 88-162). Nature of the data set: ITC; ITC: 20 mM Tris pH 7.5, 150 mM NaCl, 25 °C; EMSA: same buffer, 4 °C, 6% native gel in 0.5x TBE. To be noted: protein: recombinant; tags: His6-SUMO removed by TEV; chain copies: 2; blunt.
A further data set addresses C/EBPβ bZIP (human, UniProt P17676 259-336). Described as above. Conditions: protein: recombinant; tags: His6-SUMO removed by TEV; chain copies: 2; blunt.
The target of the next data set is T2, NFIL3 bZIP (short) (human, UniProt Q16649 65-136).
T2 sequence: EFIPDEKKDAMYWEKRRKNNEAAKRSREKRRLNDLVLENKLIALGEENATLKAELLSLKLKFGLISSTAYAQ
Described as above. Conditions: protein: recombinant; tags: His6-SUMO removed by TEV; chain copies: 2; blunt.

In another data set the target is C/EBPα bZIP (human, UniProt P49715 281-340). The data set is described as above. Conditions: protein: recombinant; tags: His6-SUMO removed by TEV; chain copies: 2; blunt.
Chain of C/EBPα bZIP (P49715 281-340): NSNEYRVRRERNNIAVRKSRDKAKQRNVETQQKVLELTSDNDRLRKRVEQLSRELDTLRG

Chain of C/EBPβ bZIP (P17676 259-336): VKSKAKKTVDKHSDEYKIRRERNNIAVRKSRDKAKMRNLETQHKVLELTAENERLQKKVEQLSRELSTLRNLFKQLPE

B1: TTgCGTAA (dsDNA)
DNA 1: CATTGCGTAATG
DNA 2: CATTACGCAATG
The Kd is the constant that tells how readily two partners part at equilibrium. Regarding B1, the dissociation constant (Kd) in the data set with NFIL3 bZIP (long) amounted to 180 ± 20 nM.

B2: NFIL3 bZIP domain (aa 65-161) (domain or fragment, human, UniProt Q16649 65-161, looked up)
chain: T1 sequence
notes: human NFIL3, bZIP domain, residues 65-161 (canonical bZIP helix aa 73-126 and an extra short helix aa 131-146); The methods of the size-exclusion run say only 'NFIL3 bZIP domain WT'; also called E4BP4; nuclear factor interleukin-3 regulated protein; source: E. coli BL21 (DE3), purified (Ni-NTA, TEV, anion exchange, gel filtration); not shown: His6, N-terminal, cleaved; SUMO, N-terminal, cleaved
As usually defined, the stoichiometry N is the number of molecules, sites or subunits per partner or assembly. In the case of B2, in data set [1], the “stoichiometry N” value worked out at 2.

B3: NFIL3 bZIP domain N112D mutant (domain or fragment, human, UniProt Q16649 65-161, looked up)
chain: T1 sequence with N48D
notes: human NFIL3, bZIP domain, residues 65-161 with N112D; also called NFIL3 (N112D); source: E. coli BL21 (DE3), purified as the wild-type protein; not shown: His6, N-terminal, cleaved; SUMO, N-terminal, cleaved
Consider B3, for which the “stoichiometry N” value in data set [1] is 2.

B4: TTAtGTAA (dsDNA)
DNA 1: CATTATGTAATG
DNA 2: CATTACATAATG
Consider B4, for which the Kd with NFIL3 bZIP (long) turned out to be 520 ± 30 nM.

B5: T/G mismatch TTAt (dsDNA)
DNA 1: CATTATGTAATG
DNA 2: CATTACGTAATG
modifications: T/G mismatch at position 6 of strand 1
For B5, the Kd in the data set with NFIL3 bZIP (long) (one T/G mismatch) amounted to 290 ± 30 nM.

B6: TcACGTAA (dsDNA)
DNA 1: CATCACGTAATG
DNA 2: CATTACGTGATG
Take B6: the dissociation constant Kd with NFIL3 bZIP (long) was 1660 ± 110 nM.

B7: TTAaGTAA (dsDNA)
DNA 1: CATTAAGTAATG
DNA 2: CATTACTTAATG
As to B7, the Kd with NFIL3 bZIP (long) stood at 120 ± 10 nM.

B8: C/EBPζ bZIP domain (aa 88-162) (domain or fragment, human, UniProt P35638 88-162, looked up)
chain: SSLAQEEEEEDQGRTRKRKQSGHSPARAGKQRMKEKEQENERKVAQLAEENERLKQEIERLTREVEATRRALIDR
notes: human C/EBPζ, bZIP domain, residues 88-162; source: E. coli BL21 (DE3), purified (Ni-NTA, TEV, anion exchange, gel filtration); not shown: His6, N-terminal, cleaved; SUMO, N-terminal, cleaved
Consider B8, for which the “stoichiometry N” value in data set [2] amounted to 2.

B9: TTAmCGTAA (dsDNA)
DNA 1: CATTACGTAATG
DNA 2: CATTACGTAATG
modifications: 5-methyl-C at position 6 of the printed strand; second strand not printed (palindrome, methylation of it not stated)
For B9, in the data set with NFIL3 bZIP (long), the Kd turned out to be 590 ± 89 nM.

B10: mutated flanking DNA (dsDNA)
DNA 1: CGTTACGTAATG
DNA 2: CATTACGTAACG
On to B10, for which, in the data set with NFIL3 bZIP (long), the Kd is 67 ± 14 nM.

B11: TGATGTAA (dsDNA)
DNA 1: GATGATGTAATC
DNA 2: GATTACATCATC
Consider B11, for which the binding result in the data set with C/EBPζ bZIP is recorded as “no binding”.

B12: TTACGTAA (dsDNA)
DNA 1: CATTACGTAATG
DNA 2: CATTACGTAATG
Regarding B12, the Kd with C/EBPβ bZIP was found to be 18 ± 3 nM; with NFIL3 bZIP (long), 42 ± 7 nM; with NFIL3 bZIP (short), 52 ± 17 nM; with C/EBPα bZIP, 350 ± 30 nM. In the data set with C/EBPζ bZIP, the binding result was “no binding”.

B13: TTGCGCAA (dsDNA)
DNA 1: CATTGCGCAATG
DNA 2: CATTGCGCAATG
As for B13, the dissociation constant Kd with C/EBPβ bZIP was 69 ± 9 nM; with NFIL3 bZIP (long) it was 810 ± 70 nM; with C/EBPα bZIP, 480 ± 70 nM. The binding result with C/EBPζ bZIP is “no binding”.

B14: cTACGTAA (dsDNA)
DNA 1: CACTACGTAATG
DNA 2: CATTACGTAGTG
B14: in the data set with NFIL3 bZIP (long), the Kd came out at 2430 ± 150 nM.

B15: ccgCGTAA (dsDNA)
DNA 1: CACCGCGTAATG
DNA 2: CATTACGCGGTG
In the case of B15, the dissociation constant Kd with NFIL3 bZIP (long) came out at 6890 ± 340 nM.
